We go through 3 variants from FireProtDB (doi:10.1093/protein/12.10.841).

“And” between values parts separate entries of the source, which are not always exact repeats. Equal entries are not always repeated.

B1: Lysozyme C, P61626 (parent)
chain: MKALIVLGLVLLSVTVQGKVFERCELARTLKRLGMDGYRGISLANWMCLAKWESGYNTRATNYNAGDRSTDYGIFQINSRYWCNDGKTPGAVNACHLSCSALLQDNIADAVACAKRVVRDPQGIRAWVAWRNRCQNRDVRQYVQGCGV

The first data set covers variants of B1. The note with it: Homo sapiens; pH 2.51; Thermal; DSC; glycine 0.05 M; reversible: yes; structure 1LZ1; whole UniProt chain shown.
For the variant MKALIVLGLVLLSVTVQGKVFERCELARTLKRLGMDGYRGISLANWMCLAKWESGYNTRATNYNAGDRSTDYGIFQSNSRYWCNDGKTPGAVNACHLSCSALLQDNIADAVACAKRVVRDPQGIRAWVAWRNRCQNRDVRQYVQGCGV, the Tm is 50.2 °C, the “heat capacity change of unfolding” value was determined as 1.27 kcal/mol/K, the “unfolding enthalpy (calorimetric)” value is 87 kcal/mol and the “unfolding enthalpy (van 't Hoff)” value was determined as 92.7 kcal/mol.

With MKALIVLGLVLLSVTVQGKVFERCELARTLKRLGMDGYRGISLANWMCLAKWESGYNTRATNYNAGDRSTDYGIFQLNSRYWCNDGKTPGAVNACHLSCSALLQDNIADAVACAKRVVRDPQGIRAWVAWRNRCQNRDVRQYVQGCGV, the Tm was found to be 61.4 °C, the “heat capacity change of unfolding” value was 1.12 kcal/mol/K, the “unfolding enthalpy (calorimetric)” value is 109 kcal/mol and the “unfolding enthalpy (van 't Hoff)” value is 117 kcal/mol.

Still in this data set, the particulars now being: Homo sapiens; pH 2.7; 64.9 °C; Thermal; DSC; glycine 0.05 M; reversible: yes; structure 1LZ1; whole UniProt chain shown.
For MKALIVLGLVLLSVTVQGKVFERCELARTLKRLGMDGYRGISLANWMCLAKWESGYNTRATNYNAGDRSTDYGIFQSNSRYWCNDGKTPGAVNACHLSCSALLQDNIADAVACAKRVVRDPQGIRAWVAWRNRCQNRDVRQYVQGCGV, the “ddG of mutation (higher = less stable)” value came out at 3.59 kcal/mol.

Consider MKALIVLGLVLLSVTVQGKVFERCELARTLKRLGMDGYRGISLANWMCLAKWESGYNTRATNYNAGDRSTDYGIFQFNSRYWCNDGKTPGAVNACHLSCSALLQDNIADAVACAKRVVRDPQGIRAWVAWRNRCQNRDVRQYVQGCGV, for which the “ddG of mutation (higher = less stable)” value was found to be 0.81 kcal/mol.

Take MKALIVLGLVLLSVTVQGKVFERCELARTLKRLGMDGYRGISLANWMCLAKWESGYNTRATNYNAGDRSTDYGIFQLNSRYWCNDGKTPGAVNACHLSCSALLQDNIADAVACAKRVVRDPQGIRAWVAWRNRCQNRDVRQYVQGCGV: the “ddG of mutation (higher = less stable)” value is 0 kcal/mol.

Staying with this data set, now noted: Homo sapiens; pH 2.7; Thermal; DSC; glycine 0.05 M; reversible: yes; structure 1LZ1; whole UniProt chain shown.
On to MKALIVLGLVLLSVTVQGKVFERCELARTLKRLGMDGYRGISLANWMCLAKWESGYNTRATNYNAGDRSTDYGIFQSNSRYWCNDGKTPGAVNACHLSCSALLQDNIADAVACAKRVVRDPQGIRAWVAWRNRCQNRDVRQYVQGCGV, for which the “change of melting temperature, mutant - wild type (higher = more stable)” value was -11.8 °C; the “heat capacity change of unfolding” value was 1.2 kcal/mol/K and 1.34 kcal/mol/K; the “unfolding enthalpy (calorimetric)” value is 90.8 kcal/mol and 107 kcal/mol; the “unfolding enthalpy (van 't Hoff)” value is 96.8 kcal/mol and 114 kcal/mol.

Consider MKALIVLGLVLLSVTVQGKVFERCELARTLKRLGMDGYRGISLANWMCLAKWESGYNTRATNYNAGDRSTDYGIFQFNSRYWCNDGKTPGAVNACHLSCSALLQDNIADAVACAKRVVRDPQGIRAWVAWRNRCQNRDVRQYVQGCGV, for which the Tm is 64.9 °C.

In the case of MKALIVLGLVLLSVTVQGKVFERCELARTLKRLGMDGYRGISLANWMCLAKWESGYNTRATNYNAGDRSTDYGIFQLNSRYWCNDGKTPGAVNACHLSCSALLQDNIADAVACAKRVVRDPQGIRAWVAWRNRCQNRDVRQYVQGCGV, the midpoint of thermal melting (Tm) stood at 64.9 °C; the “change of melting temperature, mutant - wild type (higher = more stable)” value was 0 °C; the “heat capacity change of unfolding” value is 1.27 kcal/mol/K; the “unfolding enthalpy (calorimetric)” value was determined as 114 kcal/mol. Also, the “unfolding enthalpy (van 't Hoff)” value was determined as 122 kcal/mol.

The data set is the same for the next values; noted with them: Homo sapiens; pH 2.84; Thermal; DSC; glycine 0.05 M; reversible: yes; structure 1LZ1; whole UniProt chain shown.
As for MKALIVLGLVLLSVTVQGKVFERCELARTLKRLGMDGYRGISLANWMCLAKWESGYNTRATNYNAGDRSTDYGIFQSNSRYWCNDGKTPGAVNACHLSCSALLQDNIADAVACAKRVVRDPQGIRAWVAWRNRCQNRDVRQYVQGCGV, the Tm is 55.3 °C, the “heat capacity change of unfolding” value came out at 1.55 kcal/mol/K, the “unfolding enthalpy (calorimetric)” value was found to be 94.7 kcal/mol and the “unfolding enthalpy (van 't Hoff)” value was 99.9 kcal/mol.

The data set is the same for the next values; noted with them: Homo sapiens; pH 3.04; Thermal; DSC; glycine 0.05 M; reversible: yes; structure 1LZ1; whole UniProt chain shown.
For MKALIVLGLVLLSVTVQGKVFERCELARTLKRLGMDGYRGISLANWMCLAKWESGYNTRATNYNAGDRSTDYGIFQSNSRYWCNDGKTPGAVNACHLSCSALLQDNIADAVACAKRVVRDPQGIRAWVAWRNRCQNRDVRQYVQGCGV, the Tm came to 58.2 °C, the “heat capacity change of unfolding” value stood at 1.48 kcal/mol/K, the “unfolding enthalpy (calorimetric)” value worked out at 98.2 kcal/mol and the “unfolding enthalpy (van 't Hoff)” value came out at 104 kcal/mol.

The data set is the same for the next values; noted with them: Homo sapiens; pH 3.17; Thermal; DSC; glycine 0.05 M; reversible: yes; structure 1LZ1; whole UniProt chain shown.
MKALIVLGLVLLSVTVQGKVFERCELARTLKRLGMDGYRGISLANWMCLAKWESGYNTRATNYNAGDRSTDYGIFQSNSRYWCNDGKTPGAVNACHLSCSALLQDNIADAVACAKRVVRDPQGIRAWVAWRNRCQNRDVRQYVQGCGV: the Tm turned out to be 60 °C, the “heat capacity change of unfolding” value was 1.24 kcal/mol/K, the “unfolding enthalpy (calorimetric)” value was 99.9 kcal/mol and the “unfolding enthalpy (van 't Hoff)” value was found to be 106 kcal/mol.

Consider MKALIVLGLVLLSVTVQGKVFERCELARTLKRLGMDGYRGISLANWMCLAKWESGYNTRATNYNAGDRSTDYGIFQLNSRYWCNDGKTPGAVNACHLSCSALLQDNIADAVACAKRVVRDPQGIRAWVAWRNRCQNRDVRQYVQGCGV, for which the melting temperature (Tm) came to 72.1 °C, the “heat capacity change of unfolding” value came to 1.24 kcal/mol/K, the “unfolding enthalpy (calorimetric)” value stood at 123 kcal/mol and the “unfolding enthalpy (van 't Hoff)” value stood at 132 kcal/mol.

The data set is the same for the next values; noted with them: Homo sapiens; pH 2.54; Thermal; DSC; glycine 0.05 M; reversible: yes; structure 1LZ1; whole UniProt chain shown.
With MKALIVLGLVLLSVTVQGKVFERCELARTLKRLGMDGYRGISLANWMCLAKWESGYNTRATNYNAGDRSTDYGIFQFNSRYWCNDGKTPGAVNACHLSCSALLQDNIADAVACAKRVVRDPQGIRAWVAWRNRCQNRDVRQYVQGCGV, the Tm was found to be 59.8 °C, the “heat capacity change of unfolding” value came out at 1.41 kcal/mol/K, the “unfolding enthalpy (calorimetric)” value worked out at 99.9 kcal/mol and the “unfolding enthalpy (van 't Hoff)” value was 108 kcal/mol.

The data set is the same for the next values; noted with them: Homo sapiens; pH 2.73; Thermal; DSC; glycine 0.05 M; reversible: yes; structure 1LZ1; whole UniProt chain shown.
For the variant MKALIVLGLVLLSVTVQGKVFERCELARTLKRLGMDGYRGISLANWMCLAKWESGYNTRATNYNAGDRSTDYGIFQFNSRYWCNDGKTPGAVNACHLSCSALLQDNIADAVACAKRVVRDPQGIRAWVAWRNRCQNRDVRQYVQGCGV, the Tm was 62.8 °C, the “heat capacity change of unfolding” value was determined as 1.58 kcal/mol/K, the “unfolding enthalpy (calorimetric)” value stood at 104 kcal/mol and the “unfolding enthalpy (van 't Hoff)” value was 112 kcal/mol.

The same data set, now with this note: Homo sapiens; pH 2.9; Thermal; DSC; glycine 0.05 M; reversible: yes; structure 1LZ1; whole UniProt chain shown.
Turning to MKALIVLGLVLLSVTVQGKVFERCELARTLKRLGMDGYRGISLANWMCLAKWESGYNTRATNYNAGDRSTDYGIFQFNSRYWCNDGKTPGAVNACHLSCSALLQDNIADAVACAKRVVRDPQGIRAWVAWRNRCQNRDVRQYVQGCGV, the Tm was found to be 65.4 °C, the “heat capacity change of unfolding” value came to 1.2 kcal/mol/K, the “unfolding enthalpy (calorimetric)” value stood at 108 kcal/mol and the “unfolding enthalpy (van 't Hoff)” value is 116 kcal/mol.

Staying with this data set, now noted: Homo sapiens; pH 3.05; Thermal; DSC; glycine 0.05 M; reversible: yes; structure 1LZ1; whole UniProt chain shown.
On to MKALIVLGLVLLSVTVQGKVFERCELARTLKRLGMDGYRGISLANWMCLAKWESGYNTRATNYNAGDRSTDYGIFQFNSRYWCNDGKTPGAVNACHLSCSALLQDNIADAVACAKRVVRDPQGIRAWVAWRNRCQNRDVRQYVQGCGV, for which the Tm stood at 68 °C, the “heat capacity change of unfolding” value worked out at 1.29 kcal/mol/K, the “unfolding enthalpy (calorimetric)” value is 111 kcal/mol and the “unfolding enthalpy (van 't Hoff)” value came to 120 kcal/mol.

Still in this data set, the particulars now being: Homo sapiens; pH 3.15; Thermal; DSC; glycine 0.05 M; reversible: yes; structure 1LZ1; whole UniProt chain shown.
For the variant MKALIVLGLVLLSVTVQGKVFERCELARTLKRLGMDGYRGISLANWMCLAKWESGYNTRATNYNAGDRSTDYGIFQFNSRYWCNDGKTPGAVNACHLSCSALLQDNIADAVACAKRVVRDPQGIRAWVAWRNRCQNRDVRQYVQGCGV, the Tm was 69.8 °C, the “heat capacity change of unfolding” value worked out at 1.36 kcal/mol/K, the “unfolding enthalpy (calorimetric)” value worked out at 114 kcal/mol and the “unfolding enthalpy (van 't Hoff)” value was determined as 123 kcal/mol.

The data set is the same for the next values; noted with them: Homo sapiens; pH 2.66; Thermal; DSC; glycine 0.05 M; reversible: yes; structure 1LZ1; whole UniProt chain shown.
Consider MKALIVLGLVLLSVTVQGKVFERCELARTLKRLGMDGYRGISLANWMCLAKWESGYNTRATNYNAGDRSTDYGIFQLNSRYWCNDGKTPGAVNACHLSCSALLQDNIADAVACAKRVVRDPQGIRAWVAWRNRCQNRDVRQYVQGCGV, for which the Tm came to 64.5 °C, the “heat capacity change of unfolding” value was determined as 1.17 kcal/mol/K, the “unfolding enthalpy (calorimetric)” value amounted to 113 kcal/mol and the “unfolding enthalpy (van 't Hoff)” value was found to be 122 kcal/mol.

The same data set, now with this note: Homo sapiens; pH 2.83; Thermal; DSC; glycine 0.05 M; reversible: yes; structure 1LZ1; whole UniProt chain shown.
Regarding MKALIVLGLVLLSVTVQGKVFERCELARTLKRLGMDGYRGISLANWMCLAKWESGYNTRATNYNAGDRSTDYGIFQLNSRYWCNDGKTPGAVNACHLSCSALLQDNIADAVACAKRVVRDPQGIRAWVAWRNRCQNRDVRQYVQGCGV, the Tm was determined as 67 °C, the “heat capacity change of unfolding” value stood at 1.17 kcal/mol/K, the “unfolding enthalpy (calorimetric)” value came to 116 kcal/mol and the “unfolding enthalpy (van 't Hoff)” value was 126 kcal/mol.

The same data set, now with this note: Homo sapiens; pH 2.96; Thermal; DSC; glycine 0.05 M; reversible: yes; structure 1LZ1; whole UniProt chain shown.
As for MKALIVLGLVLLSVTVQGKVFERCELARTLKRLGMDGYRGISLANWMCLAKWESGYNTRATNYNAGDRSTDYGIFQLNSRYWCNDGKTPGAVNACHLSCSALLQDNIADAVACAKRVVRDPQGIRAWVAWRNRCQNRDVRQYVQGCGV, the Tm was found to be 69.8 °C, the “heat capacity change of unfolding” value turned out to be 1.31 kcal/mol/K, the “unfolding enthalpy (calorimetric)” value came to 119 kcal/mol and the “unfolding enthalpy (van 't Hoff)” value is 128 kcal/mol.
